{"source": "patent US5981229", "biological_target": "PlpA-PhoA fusion protein of strain SPRU98 (Streptococcus pneumoniae; E. coli)"}
{"substance": "DsbA (from UniProt P0AEG4) (enzyme)", "values": [{"measurement": "alkaline phosphatase activity of SPRU98 whole bacteria (activity units per mg of total protein)", "value": 138}]}
